Results as given in paper PMC6626918 (Frontiers in Microbiology, 2019).

Columns and labels:
[1] = biological target: Alkyl hydroperoxide reductase subunit C (AhpC) of Burkholderia thailandensis E264, GST-tagged (Burkholderia thailandensis E264) (UniProt Q2SWT3)
AhpC (BthAhpC) = biological target: T1, AhpC (BthAhpC) (Burkholderia thailandensis, UniProt Q2SWT3); details: read-out: Systems / AhpD / Km
T1 construct: gene BTH_I2092

Compound | Km of AhpC peroxidase activity for TrxC (NADPH consumption at 340 nm; TrxC varied 0-500 μM, 1 μM AhpC, 1 mM CHP, TrxR system) [1] [µM] | Km of AhpC peroxidase activity for TrxC (NADPH consumption at 340 nm; TrxC varied 0-500 μM, 1 μM AhpC, 1 mM H2O2, TrxR system) [1] [µM] | Km of AhpC peroxidase activity for TrxC (NADPH consumption at 340 nm; TrxC varied 0-500 μM, 1 μM AhpC, 1 mM t-BOOH, TrxR system) [1] [µM] | Km (AhpC (BthAhpC)) [µM]
Thioredoxin C (TrxC) of Burkholderia thailandensis E264 (enzyme) | 147 | 348 | 202 | –
CC(C)(C)OO [t-BOOH] | – | – | – | 60.1 ± 1.8
CC(C)(OO)c1ccccc1 [CHP] | – | – | – | 57.6 ± 1.2
